Assay results published in US6462189.
Residue numbers refer to the chain shown, from its start.

Target: T1, Yeast ubiquitin (yeast, UniProt P0CG63 1-76)
T1 construct: mature; also called soluble ubiquitin; free ubiquitin
Assay: clone obtained by phage panning on immobilized ubiquitin
Experimental: Libraries 2 and 4, described in Example VI above, were used to select ubiquitin-binding monobodies. Ubiquitin (1 μg in 50 μl sodium bicarbonate buffer (100 mM, pH 8.5)) was immobilized in the wells of a microtiter plate, followed by blocking with BSA (3% in TBS). Panning was performed as described above. In the first two rounds, 1 μg of ubiquitin was immobilized per well, and bound phage were elute with an acidic solution. From the third to the sixth rounds, 0.1 μg of ubiquitin was immobilized per well and the phage were eluted either with an acidic solution or with TBS containing 10 μM ubiquitin.

T1 sequence (P0CG63 1-76 limits assumed): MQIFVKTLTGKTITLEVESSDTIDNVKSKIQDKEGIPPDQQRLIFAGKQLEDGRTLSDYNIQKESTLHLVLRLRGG

B1: ubiquitin-binding monobody 422 (phage clone) (designed binder, not shown: large carriers; small tags and cut ends)
chain: VSDVPRDLEVVAATPTSLLISWDAPARWTLYYRITYGETGGNSPVQEFTVPGSKSTATISGLKPGVDYTITVYAVTRRWWWSKPISINYRT
notes: Library 4 clone obtained by panning on ubiquitin; no test of it as a single clone is reported
binding result: binds

B2: ubiquitin-binding monobody 424 (phage clone) (designed binder, not shown: large carriers; small tags and cut ends)
chain: B1 chain with A26G, R27Q, W28R, L30F, W81A
notes: as for B1
binding result: binds
